Laboratory results from publication PMC8233815.
Read-outs that look alike come from different tables or passages of the source.

Experiments:
[1] = target: T1, Elk1 ETS domain (Homo sapiens, UniProt P19419 1-93); experiment: SPR
T1 sequence: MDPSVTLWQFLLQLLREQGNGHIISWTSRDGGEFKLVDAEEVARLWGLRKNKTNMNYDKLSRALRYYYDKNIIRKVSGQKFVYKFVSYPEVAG

[2] = target: T1, Elk1 ETS domain; experiment: SPR; remark: listed apart in the source

B1: SD1 (scrambled nonspecific) (dsDNA)
DNA 1: CGCAAAAGCTGAGATGGCGTGCC
DNA 2: GGCACGCCATCTCAGCTTTTGCG
binding result [1]: no binding

B2: E74 (dsDNA)
DNA 1: CTGAATAACCGGAAGTAACTCATC
DNA 2: GATGAGTTACTTCCGGTTATTCAG
binding result [2]: binds
